Test results reported in publication PMC3696110, “Hsp70 Oligomerization Is Mediated by an Interaction between the Interdomain Linker and the Substrate-Binding Domain” (PLoS ONE, 2013).
pKd: −log10 of the molar value. Like-named read-outs stand apart in the source and are kept apart here. Each block holds one substance with its values, some of them ahead of it.

What was measured:
[1] = molecular target: FL-Hsp70 2LD, full-length human Hsp70 with Leu395 and Leu397 substituted by aspartic residues (human) (UniProt P0DMV8); assay: SEC; analytical SEC, Superdex 75 10/300 GL, 4 °C; 220 µM protein
P0DMV8 [2] = assay: SEC; analytical SEC, Superdex 75 10/300 GL, 4 °C, 50 mM Tris pH 7.4, 150 mM KCl, 5 mM MgCl2; 6 µM protein
P0DMV8 [3] = assay: SEC; analytical SEC, Superdex 75 10/300 GL, 4 °C, 50 mM Tris pH 7.4, 150 mM KCl, 5 mM MgCl2; 70 µM protein
P0DMV8 [4] = assay: native MS; nESI-MS, 150 mM ammonium acetate pH 7.4, protein 6 µM (6-15 µM); abundances from the most abundant charge states
[5] = molecular target: dansyl-NR peptide (NRLLLTG, N-terminally labelled with dansyl); assay: other fluorescence titration; chaperone titrated into 2 µM dansyl-NR peptide, 1 h at 25 °C, 50 mM Tris pH 7.4, 150 mM KCl, 5 mM MgCl2; single-site fit, apparent Kd
[6] = molecular target: SBD556 (384-556) of human Hsp70 with the L542Y mutation (human) (UniProt P0DMV8); assay: SEC; analytical SEC, Superdex 75 10/300 GL, 4 °C, 50 mM Tris pH 7.4, 150 mM KCl, 5 mM MgCl2; 6 µM protein
[7] = molecular target: SBD556 (384-556) of human Hsp70 with the L542Y mutation (human) (UniProt P0DMV8); assay: SEC; analytical SEC, Superdex 75 10/300 GL, 4 °C, 50 mM Tris pH 7.4, 150 mM KCl, 5 mM MgCl2; 70 µM protein
[8] = molecular target: SBD556 (384-556) of human Hsp70 with the L542Y mutation (human) (UniProt P0DMV8); assay: native MS; nESI-MS, 150 mM ammonium acetate pH 7.4, protein 6 µM (6-15 µM); abundances from the most abundant charge states
P0DMV8 [9] = assay: SEC; analytical SEC after 1 h at room temperature with a 14-fold excess of NR peptide; protein concentration of this panel not stated
P0DMV8 [10] = assay: SEC; analytical SEC of SBD641 refolded after thermal denaturation; protein concentration of this panel not stated
[11] = molecular target: SBD641 (384-641), full-length substrate-binding domain of human Hsp70 with the interdomain linker (human) (UniProt P0DMV8); assay: native MS + SEC; oligomerization constant estimated from the populations of Table 1; equilibrium of monomer, dimer and trimer
[12] = molecular target: SBD641 (384-641), full-length substrate-binding domain of human Hsp70 with the interdomain linker (human) (UniProt P0DMV8); assay: SEC; analytical SEC after 1 h at room temperature with a 14-fold excess of NR peptide; protein concentration of this panel not stated
[13] = molecular target: SBD641 (384-641), full-length substrate-binding domain of human Hsp70 with the interdomain linker (human) (UniProt P0DMV8); assay: SEC; fraction of oligomeric species set beside DLS (Figure S3C), with 14-times excess of NR peptide; 20 µM SBD641 named for the panel
[14] = molecular target: SBD641 (384-641), full-length substrate-binding domain of human Hsp70 with the interdomain linker (human) (UniProt P0DMV8); assay: SEC; fraction of oligomeric species set beside DLS (Figure S3C), without NR peptide; 20 µM protein named for the panel
[15] = molecular target: SBD641 (384-641), full-length substrate-binding domain of human Hsp70 with the interdomain linker (human) (UniProt P0DMV8); assay: SEC; analytical SEC, Superdex 75 10/300 GL, 4 °C, 50 mM Tris pH 7.4, 150 mM KCl, 5 mM MgCl2; 6 µM protein
[16] = molecular target: SBD641 (384-641), full-length substrate-binding domain of human Hsp70 with the interdomain linker (human) (UniProt P0DMV8); assay: native MS; nESI-MS, 150 mM ammonium acetate pH 7.4, protein 6 µM (6-15 µM); abundances from the most abundant charge states
[17] = molecular target: SBD641 (384-641), full-length substrate-binding domain of human Hsp70 with the interdomain linker (human) (UniProt P0DMV8); assay: SEC; analytical SEC, Superdex 75 10/300 GL, 4 °C, 50 mM Tris pH 7.4, 150 mM KCl, 5 mM MgCl2; 70 µM protein
[18] = molecular target: SBD641 (384-641), full-length substrate-binding domain of human Hsp70 with the interdomain linker (human) (UniProt P0DMV8); assay: SEC + other: dynamic light scattering; fraction of oligomers (SEC) and apparent hydrodynamic diameter (DLS) of SBD641 against protein concentration; extrapolation to 0.5 oligomer fraction
[19] = molecular target: SBD641 (384-641), full-length substrate-binding domain of human Hsp70 with the interdomain linker (human) (UniProt P0DMV8); assay: native MS; nESI-MS, 150 mM ammonium acetate pH 7.4, protein 6 µM (6-15 µM); abundances from the most abundant charge states; remark: listed apart in the source
[20] = molecular target: full-length human Hsp70 (Hsp70 1A) (human) (UniProt P0DMV8); assay: SEC; analytical SEC, Superdex 75 10/300 GL, 4 °C; 220 µM protein
[21] = molecular target: full-length human Hsp70 (Hsp70 1A) (human) (UniProt P0DMV8); assay: SEC; analytical SEC, Superdex 75 10/300 GL, 4 °C, 50 mM Tris pH 7.4, 150 mM KCl, 5 mM MgCl2; 6 µM protein
[22] = molecular target: full-length human Hsp70 (Hsp70 1A) (human) (UniProt P0DMV8); assay: SEC; analytical SEC, Superdex 75 10/300 GL, 4 °C, 50 mM Tris pH 7.4, 150 mM KCl, 5 mM MgCl2; 70 µM protein
[23] = molecular target: full-length human Hsp70 (Hsp70 1A) (human) (UniProt P0DMV8); assay: native MS; nESI-MS, 150 mM ammonium acetate pH 7.4, protein 6 µM (6-15 µM); abundances from the most abundant charge states
[24] = molecular target: ΔLSBD641 (394-641), SBD641 of human Hsp70 without the first ten residues of the interdomain linker (human) (UniProt P0DMV8); assay: SEC; fraction of oligomeric species set beside DLS (Figure S3C), without NR peptide; 20 µM protein named for the panel
[25] = molecular target: ΔLSBD641 (394-641), SBD641 of human Hsp70 without the first ten residues of the interdomain linker (human) (UniProt P0DMV8); assay: SEC; analytical SEC, Superdex 75 10/300 GL, 4 °C, 50 mM Tris pH 7.4, 150 mM KCl, 5 mM MgCl2; 6 µM protein
[26] = molecular target: ΔLSBD641 (394-641), SBD641 of human Hsp70 without the first ten residues of the interdomain linker (human) (UniProt P0DMV8); assay: SEC; analytical SEC, Superdex 75 10/300 GL, 4 °C, 50 mM Tris pH 7.4, 150 mM KCl, 5 mM MgCl2; 70 µM protein
[27] = molecular target: ΔLSBD641 (394-641), SBD641 of human Hsp70 without the first ten residues of the interdomain linker (human) (UniProt P0DMV8); assay: native MS; nESI-MS, 150 mM ammonium acetate pH 7.4, protein 6 µM (6-15 µM); abundances from the most abundant charge states

Chain of FL-Hsp70 2LD, full-length human Hsp70 with Leu395 and Leu397 substituted by aspartic residues (P0DMV8 whole entry): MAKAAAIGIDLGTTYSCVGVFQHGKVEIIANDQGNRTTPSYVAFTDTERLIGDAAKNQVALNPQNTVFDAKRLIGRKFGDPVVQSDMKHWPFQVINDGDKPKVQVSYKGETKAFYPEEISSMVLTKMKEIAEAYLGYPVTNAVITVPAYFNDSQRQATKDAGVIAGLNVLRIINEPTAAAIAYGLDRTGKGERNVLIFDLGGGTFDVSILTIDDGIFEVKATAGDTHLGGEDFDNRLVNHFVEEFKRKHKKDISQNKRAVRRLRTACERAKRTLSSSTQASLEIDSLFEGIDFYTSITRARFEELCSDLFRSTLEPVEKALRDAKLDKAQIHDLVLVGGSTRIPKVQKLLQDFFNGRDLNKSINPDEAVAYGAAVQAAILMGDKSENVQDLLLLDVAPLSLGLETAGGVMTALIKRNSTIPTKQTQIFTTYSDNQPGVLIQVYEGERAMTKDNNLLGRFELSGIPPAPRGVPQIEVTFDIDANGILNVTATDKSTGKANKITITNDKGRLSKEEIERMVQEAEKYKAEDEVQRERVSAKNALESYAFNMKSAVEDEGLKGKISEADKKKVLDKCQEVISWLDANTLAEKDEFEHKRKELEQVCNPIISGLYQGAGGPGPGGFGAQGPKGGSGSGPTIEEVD

Substance: SBD556 (384-556) of human Hsp70 with the L542Y mutation
% monomer (P0DMV8 [2]): 97%
% monomer (P0DMV8 [3]): 93%
% monomer (P0DMV8 [4]): 82%

Substance: SBD556 (384-556) of human Hsp70 with the L542Y mutation (from UniProt P0DMV8 384-556) (domain or fragment)
pKd [5]: 4.28
% dimer [6]: 3%
% total oligomers [6]: 3%
% dimer [7]: 7%
% total oligomers [7]: 7%
% dimer [8]: 16%
% total oligomers [8]: 18%
% trimer [8]: 2%

Substance: SBD641 (384-641), full-length substrate-binding domain of human Hsp70 with the interdomain linker
% monomer (P0DMV8 [9]): the monomeric fraction increases from 37% to 58% in the presence of peptide
% monomer (P0DMV8 [10]): a dramatic increase in the monomeric fraction of the refolded protein compared to the native protein (from 37% to 71%)
% monomer (P0DMV8 [2]): 37%
% monomer (P0DMV8 [3]): 23%
% monomer (P0DMV8 [4]): 46%

Substance: full-length human Hsp70 (Hsp70 1A)
% monomer (P0DMV8 [2]): 99%
% monomer (P0DMV8 [3]): 93%
% monomer (P0DMV8 [4]): 98%

Substance: ΔLSBD641 (394-641), SBD641 of human Hsp70 without the first ten residues of the interdomain linker
% monomer (P0DMV8 [2]): 91%
% monomer (P0DMV8 [3]): 86%
% monomer (P0DMV8 [4]): 92%

Results, then the substance that gave them:

% oligomeric species [1]: < 9%
Substance: FL-Hsp70 2LD, full-length human Hsp70 with Leu395 and Leu397 substituted by aspartic residues (from UniProt P0DMV8 1-641) (natural protein)

pKd [11]: 5.00 to 5.30
pKd [5]: 4.96
% dimer [12]: 24%
% higher-order oligomers [12]: 18%
fraction of oligomeric species [13]: 0.5
fraction of oligomeric species [14]: 0.7
% dimer [15]: 44%
% total oligomers [15]: 63%
% tetramer [16]: 2%
% trimer [16]: 12%
% dimer [17]: 55%
% higher-order oligomers [17]: 22%
% total oligomers [17]: 77%
pKd [18]: 5.00 to 6.00
% dimer [19]: 40%
% total oligomers [19]: 54%
% trimer [19]: 10%
Substance: SBD641 (384-641), full-length substrate-binding domain of human Hsp70 with the interdomain linker (from UniProt P0DMV8 384-641) (domain or fragment)

pKd [5]: 5.05
% oligomeric species [20]: 35%
% dimer [21]: 1%
% total oligomers [21]: 1%
% dimer [22]: 7%
% oligomeric species [22]: 10%
% total oligomers [22]: 7%
% dimer [23]: 2%
% total oligomers [23]: 2%
% trimer [23]: -0%
Substance: full-length human Hsp70 (Hsp70 1A) (from UniProt P0DMV8 1-641) (natural protein)

pKd [5]: 5.10
fraction of oligomeric species [24]: 0.1
% dimer [25]: 9%
% total oligomers [25]: 9%
% dimer [26]: 14%
% total oligomers [26]: 14%
% dimer [27]: 8%
% total oligomers [27]: 8%
% trimer [27]: -0%
Substance: ΔLSBD641 (394-641), SBD641 of human Hsp70 without the first ten residues of the interdomain linker (from UniProt P0DMV8 394-641) (domain or fragment)
